Assay results as given in the Immune Epitope Database (IEDB).

Columns and labels:
Assay in all cases: IEDB peptide-MHC binding, purified MHC/competitive/radioactivity; ≥ and ≤ were set here for values at or beyond the usual limits of such assays
HLA-A*02:01 = target: HLA-A*02:01
HLA-A*68:02 = target: HLA-A*68:02
HLA-A*02:06 = target: HLA-A*02:06
HLA-A*02:03 = target: HLA-A*02:03
HLA-A*02:02 = target: HLA-A*02:02
[1] = source organism: Vaccinia virus WR
[2] = source organism: Hepacivirus hominis
[3] = source organism: Influenza A virus
[4] = source organism: Mammarenavirus guanaritoense

Row | Sequence | IC50 (HLA-A*02:01; [1]) [nM] | IC50 (HLA-A*68:02; [1]) [nM] | IC50 (HLA-A*02:06; [1]) [nM] | IC50 (HLA-A*02:03; [1]) [nM] | IC50 (HLA-A*02:02; [1]) [nM] | also measured
1 | ALLFLMSFTI | – | – | – | – | – | IC50 (HLA-A*02:01; source organism: SARS-CoV1): 1.6 nM; IC50 (HLA-A*68:02; source organism: SARS-CoV1): 1770 nM; IC50 (HLA-A*02:06; source organism: SARS-CoV1): 14 nM; IC50 (HLA-A*02:03; source organism: SARS-CoV1): 199 nM; IC50 (HLA-A*02:02; source organism: SARS-CoV1): 0.37 nM
2 | NLILNFLDWI | 4390 | 3710 | 443 | 283 | 1690 | –
3 | NVISKIYTLI | 329 | 67 | 196 | 33 | 0.99 | –
4 | TLNTLITLIL | 45 | 1140 | 826 | 7.1 | 150 | –
5 | DIISSKQYPA | 2890 | 220 | 3100 | 2430 | 552 | –
6 | IMAFILGII | 166 | 2520 | 175 | 30 | 17 | –
7 | LLAPITAYA | – | – | – | – | – | IC50 (HLA-A*02:01; [2]): 2.9 nM; IC50 (HLA-A*68:02; [2]): 1.5 nM; IC50 (HLA-A*02:06; [2]): 5.3 nM; IC50 (HLA-A*02:03; [2]): 0.61 nM; IC50 (HLA-A*02:02; [2]): 0.27 nM
8 | TSFFYRYGFV | – | – | – | – | – | IC50 (HLA-A*02:01; [3]): 1100 nM; IC50 (HLA-A*68:02; [3]): 0.0096 nM; IC50 (HLA-A*02:06; [3]): 851 nM; IC50 (HLA-A*02:03; [3]): 451 nM; IC50 (HLA-A*02:02; [3]): 1100 nM
9 | LVFLWLLWPV | – | – | – | – | – | IC50 (HLA-A*02:01; source organism: SARS-CoV1): 4.9 nM; IC50 (HLA-A*68:02; source organism: SARS-CoV1): 18 nM; IC50 (HLA-A*02:06; source organism: SARS-CoV1): 0.56 nM; IC50 (HLA-A*02:03; source organism: SARS-CoV1): 1.9 nM; IC50 (HLA-A*02:02; source organism: SARS-CoV1): 0.93 nM
10 | FLPQIGGEA | 1360 | 149 | 96 | 121 | 21 | –
11 | FLIVAALVFL | – | – | – | – | – | IC50 (HLA-A*02:01; source organism: SARS-CoV1): 11 nM; IC50 (HLA-A*68:02; source organism: SARS-CoV1): 1090 nM; IC50 (HLA-A*02:06; source organism: SARS-CoV1): 3.6 nM; IC50 (HLA-A*02:03; source organism: SARS-CoV1): 162 nM; IC50 (HLA-A*02:02; source organism: SARS-CoV1): 3 nM
12 | AISAVYFKA | 41 | 77 | 149 | 525 | 3.7 | –
13 | GVMYAFTTPL | 83 | 2540 | 45 | 44 | 34 | –
14 | IISSKQYPA | 410 | 3580 | 1160 | 612 | 164 | –
15 | HIKTIAVSV | 1050 | 381 | 1550 | 9.6 | 3080 | –
16 | LISFFGLFDI | 175 | 82 | 171 | 108 | 76 | –
17 | VNNAVVMPA | – | – | – | – | – | IC50 (HLA-A*02:01; [3]): 468 nM; IC50 (HLA-A*68:02; [3]): 1910 nM; IC50 (HLA-A*02:06; [3]): 828 nM; IC50 (HLA-A*02:03; [3]): 712 nM; IC50 (HLA-A*02:02; [3]): 231 nM
18 | IASSMKGENV | 727 | 867 | 311 | 3240 | 751 | –

Row | Sequence | IC50 (HLA-A*02:01; [1]) [nM] | IC50 (HLA-A*68:02; [1]) [nM] | IC50 (HLA-A*02:06; [1]) [nM] | IC50 (HLA-A*02:03; [1]) [nM] | IC50 (HLA-A*02:02; [1]) [nM] | also measured
19 | LAFVVFLLV | – | – | – | – | – | IC50 (HLA-A*02:01; source organism: SARS-CoV1): 610 nM; IC50 (HLA-A*68:02; source organism: SARS-CoV1): 1000 nM; IC50 (HLA-A*02:06; source organism: SARS-CoV1): 253 nM; IC50 (HLA-A*02:03; source organism: SARS-CoV1): 1270 nM; IC50 (HLA-A*02:02; source organism: SARS-CoV1): 458 nM
20 | GTSAAAYFV | – | – | – | – | – | IC50 (HLA-A*02:01; source organism: SARS-CoV1): 176 nM; IC50 (HLA-A*68:02; source organism: SARS-CoV1): 14 nM; IC50 (HLA-A*02:06; source organism: SARS-CoV1): 91 nM; IC50 (HLA-A*02:03; source organism: SARS-CoV1): 202 nM; IC50 (HLA-A*02:02; source organism: SARS-CoV1): 35 nM
21 | TSVDLNAPV | – | – | – | – | – | IC50 (HLA-A*02:01; [4]): 464 nM; IC50 (HLA-A*68:02; [4]): 0.26 nM; IC50 (HLA-A*02:06; [4]): 26 nM; IC50 (HLA-A*02:03; [4]): 841 nM; IC50 (HLA-A*02:02; [4]): 65 nM
22 | TVLTSVDIET | 1260 | 2990 | 961 | 915 | 1720 | –
23 | FLCLFLLPSL | – | – | – | – | – | IC50 (HLA-A*02:01; source organism: SARS-CoV1): 0.33 nM; IC50 (HLA-A*68:02; source organism: SARS-CoV1): 729 nM; IC50 (HLA-A*02:06; source organism: SARS-CoV1): 0.37 nM; IC50 (HLA-A*02:03; source organism: SARS-CoV1): 2.9 nM; IC50 (HLA-A*02:02; source organism: SARS-CoV1): 0.53 nM
24 | FMRDEVSFSV | – | – | – | – | – | IC50 (HLA-A*02:01; [2]): 4 nM; IC50 (HLA-A*68:02; [2]): 2950 nM; IC50 (HLA-A*02:06; [2]): 10 nM; IC50 (HLA-A*02:03; [2]): 2.7 nM; IC50 (HLA-A*02:02; [2]): 2.2 nM
25 | MAAAKTPVI | 1370 | 16 | 672 | 209 | 259 | –
26 | MQALQLLLEV | – | – | – | – | – | IC50 (HLA-A*02:01; [3]): 67 nM; IC50 (HLA-A*68:02; [3]): 615 nM; IC50 (HLA-A*02:06; [3]): 48 nM; IC50 (HLA-A*02:03; [3]): 13 nM; IC50 (HLA-A*02:02; [3]): 147 nM
27 | RLLAPITAYA | – | – | – | – | – | IC50 (HLA-A*02:01; [2]): 29 nM; IC50 (HLA-A*68:02; [2]): 94 nM; IC50 (HLA-A*02:06; [2]): 103 nM; IC50 (HLA-A*02:03; [2]): 25 nM; IC50 (HLA-A*02:02; [2]): 5.2 nM
28 | MVMCGGSLYV | – | – | – | – | – | IC50 (HLA-A*02:01; source organism: SARS-CoV1): 14 nM; IC50 (HLA-A*68:02; source organism: SARS-CoV1): 6.7 nM; IC50 (HLA-A*02:06; source organism: SARS-CoV1): 13 nM; IC50 (HLA-A*02:03; source organism: SARS-CoV1): 10 nM; IC50 (HLA-A*02:02; source organism: SARS-CoV1): 15 nM
29 | SIVCIVAAV | 5.3 | 0.55 | 3.5 | 2.8 | 3.9 | –
30 | IVNSVLLFL | – | – | – | – | – | IC50 (HLA-A*02:01; source organism: SARS-CoV1): 68 nM; IC50 (HLA-A*68:02; source organism: SARS-CoV1): 2090 nM; IC50 (HLA-A*02:06; source organism: SARS-CoV1): 30 nM; IC50 (HLA-A*02:03; source organism: SARS-CoV1): 179 nM; IC50 (HLA-A*02:02; source organism: SARS-CoV1): 7.1 nM
31 | IMSMMNITRL | 284 | 119 | 585 | 106 | 62 | –
32 | ELTTVFIKYV | 2560 | 81 | 463 | 719 | 2800 | –
33 | MIYDLNAVTT | 278 | 114 | 429 | 477 | 897 | –
34 | FVKENERVNV | 270 | 1290 | 683 | 12 | 186 | –
35 | YVVVHGYFT | – | – | – | – | – | IC50 (HLA-A*02:01; source organism: SARS-CoV1): 1070 nM; IC50 (HLA-A*68:02; source organism: SARS-CoV1): 212 nM; IC50 (HLA-A*02:06; source organism: SARS-CoV1): 171 nM; IC50 (HLA-A*02:03; source organism: SARS-CoV1): 792 nM; IC50 (HLA-A*02:02; source organism: SARS-CoV1): 342 nM
